Target: C3
Assay: analytical ultracentrifugation; self-association (dimer)

Kd: 188 µM
Substance: C3

Source: patent US20160340412A1
